Article PMC12014896 (2025)
Residue numbers refer to the chain shown, from its start.

B1: COVIC-338 (antibody, V domains shown)
VH: EVQLVESGGGLVQPGRSLRLSCAASGLTFEDYAMHWVRQPPGKGLEWVSGVSWNSGTIGYADSVKGRFTISRDNAKNSLYLHMRSLGAEDTAMYYCAKDMGGRFSFFSLENDAFDIWGQGTMVIVSS
VL: SYELTQPPSVSVSPGQTARITCSGDALPKQSTYWYQQKPGQAPVLVIYKDIERPSGIPERFSGSSSGTTVTLTISGVQAEDEADYYCQSADSSDTYVFGTGTKVTVL
B2: COVIC-28 (antibody, V domains shown)
VH: QVQLVQSGAEVKKPGASVKVSCKASGYTFTSYYMHWVRQAPGQGLEWMGIINSSGGSTSYAQKFQGRVTMTRDTSTSTVYMELSSLRSEDTAVYYCARPPRNYYDRSGYYQRAEYFQHWGQGTLVTVSS
VL: DIQLTQSPSSLSASVGDRVTITCQASQDISNYLNWYQQRPGKAPKLLIYDASNLETGVPSRFSGSGSGTDFTFTISSLQPEDIATYYCQQYDNPPLTFGGGTKLEIK
B3: COVIC-263 (antibody, V domains shown)
VH: QVQLQESGPRLVKPSETLSLTCTVSGGSISGSNYFWGWIRQPPGKGLEWIGTIYYGGSTYYNPSLKSRVTISVDTSENQFSLKLSSVTAADTAVYYCANLAWLRGYFDYWGQGTLVTVSS
VL: NFMLTQPHSVSESPGKTVTISCTRSSGSIASNYVQWYQQRPGSAPTTVIYEDNQRPSGVPDRFSGSIDSSSNSVSLTISGLKTEDEADYYCQSYDSSNWVFGGGTKLTVLG
B4: COVIC-303 (antibody, V domains shown)
VH: QVTLKESGPVLVKPTETLTLTCTVSGFSLSNARMGVSWIRQPPGKALEWLAHIFSNGEKSYSTSLKSRLTISKDTSKSQVVLTMTNMDPVDTATYYCARTLDYYDSSGYLVGGAFDIWGQGTMVTVSS
VL: QPGLTQPPSVSLAPGQTARITCGGNNIGSKSVHWYQQKPGQAPVLVVYDDSDRPSGIPERFSGSNAGNTATLTISRVEAGDEADYYCQVWDSRSDQYVFGTRTKLTVLG
B5: COVIC-260 (antibody, V domains shown)
VH: QVQLQESGPGLVKPSETLSLTCSVSGDSISSSDYSWGWIRQPPGKGLEWIGTIYYIKNTYYNPSLRSRVTLSVDTSKNLFSLKLSSVTAADTAVYYCARERPPFDVVVVPAARPYNWFDPWGLGTLVIVSS
VL: QSVLMQPPSVSGAPGQRVTISCTGSSSNIGAGYDVHWYQQLPGTAPKLLIYGNNNRPSGVPDRFSGSKSGTSASLAITGLQADDEADYYCQSYDSSLSGSKVFGGGTKLTVLG
B6: COVIC-267 (antibody, V domains shown)
VH: EVQLVESGGGLVQPGGSLRLSCTVSGFSLSSYAMSWVRQAPGKGLEWIGIIGNSGNTYYASWAKGRFTISRDNSKNTLYLQMNSLRAEDTAVYYCARNWDPDSYEYTYATNSFDPWGQGTLVTVSS
VL: DIQMTQSPSSLSASVGDRVTITCQASESISSYLAWYQQKPGKAPKLLIYRASTLESGVPSRFSGSGSGTDFTLTISSLQPEDFATYYCQCTYGSSSSGSYGNAFGGGTKVEIK
B7: COVIC-301 (antibody, V domains shown)
VH: EVQLVESGGGLIQPGGSLRLSCAASGVTVSSNYMSWVRQAPGKGLEWVSIIYPGGSRFYADSVKGRFTISRDNSKNTLYLQMNSLRAEDTAVYYCAREVRGWLDPWGQGTLVTVSS
VL: DVVMTQSPSFLSASVGDRVTITCRASQGISNYLAWYQQKPGKAPKLLIYASSTLQSGVPSRFSGSGSGTEFTLTISSLQPEDFATYYCQHLNSYPHFGQGTRLEIKR
B8: COVIC-56 (antibody)
chain 1: not shown
chain 2: QVQLQESGGGLVQAGGSLRLSCAASGRTFSEYAMGWFRQAPGKEREFVATISWSGGSTYYTDSVKGRFTISRDNAKNTVYLQMNSLKPDDTAVYYCAAAGLGTVVSEWDYDYDYWGQGTQVTVSSGGGGSGGGGSKRTVAAPSVFIFPPSDEQLKSGTASVVCLLNNFYPREAKVQWKVDNALQSGNSQESVTEQDSKDSTYSLSSTLTLSKADYEKHKVYACEVTHQGLSSPVTKSFNRGEC
B9: COVIC-298 (antibody, V domains shown)
VH: EVQLVQSGAEVKKPGESLKISCQGSGFSFSNYWIGWVRQMPGKGLEWMGIIYPDDSDTRYSPSFQGQVTISADKSISTAFLQWSSLKASDTAMYYCATRTGWTNDAFDIWGQGTMVTVSS
VL: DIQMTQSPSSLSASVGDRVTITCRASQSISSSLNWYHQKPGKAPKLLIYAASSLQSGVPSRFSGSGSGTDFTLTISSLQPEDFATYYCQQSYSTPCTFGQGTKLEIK
B10: COVIC-334 (antibody, V domains shown)
VH: QMQLVQSGPEVKKPGTSVKVSCKASGFTFSSSAVQWVRQARGQGLEWIGWIVVGSGNANYAQKLQERVSITRDMSTSTAYMELSSLRPEDTAVYYCAAPHCSRTICHDGFDMWGQGTMVTVSS
VL: EIVLTQSPGTLSLSPGERATLSCRASQSVRSSYLAWYQQKPGQAPRLLMFVASSRATGIPDRFSGSGSGTDFTLTISRLEPEDFAVYYCQQYDTSPWTFGQGTKVEIK
B11: COVIC-359 (antibody, V domains shown)
VH: EVQLVESGGGLVQPGGSLRLSCKASGISVAPHAVTWVRQAPGKGLEWIGVIASNADTYYASWAKGRFTISRDNSKNTLYLQMNSLRAEDTAVYYCARHPGSAGYGYTYYYAMDPWGQGTLVTVSS
VL: DIQMTQSPSSLSASVGDRVTITCKASEDIRYGLNWYQQKPGKAPKLLIYGANTLEAGVPSRFSGSGSGTDYTLTISSLQPEDFATYYCQQGYSTPLTFGGGTKVEIK
B12: COVIC-361 (antibody, V domains shown)
VH: B11 VH
VL: DIQMTQSPSSLSASVGDRVTITCQASQDVKYAINWYQQKPGKAPKLLIYGTSSRGEGVPSRFSGSGSGTDYTLTISSLQPEDFATYYCQQGYVVSIFFGGGTKVEIK
B13: COVIC-147 (antibody, V domains shown)
VH: EVQLVESGGGLIQPGGSLRLSCAASGFTVSSIYMSWVRQAPGKGLEWVSIIYSRGSTDYADSVKGRFTISRDISKNTLYLQMNSLRAEDTAVYYCARDGTMVRGVHAFDIWGQGTMVTVSS
VL: DIQMTQSPPSLSASIGDRVTITCQASQDISNYLNWYQQKPGKAPKLLIYDASNLETGVPSRFSGSGSGTDFTLTISNLQPEDIVTYYCQQYDNLPSSFGQGTKLEIKR
B14: COVIC-148 (antibody, V domains shown)
VH: QVQLVQSGAEVKKPGASVKVSCKASGYTFTSYDINWVRQATGQGLEWMGWMNPNSGNTGYAQKFQGRVTMTRDTSINTAYMELSSLRSEDTAVYFCARGGRYCSDVTCYSGEPFDYWGQGTLVTVSS
VL: EIMLTQSPDFQSVTPKEKVTITCRASQSIGSSLHWYQQKPDQSPKLLIKFASQSISGVPSRFSGSGSGTDFTLTINSLEAEDAAAYYCHQSSSLPHTFGPGTKVEIKR
B15: COVIC-335 (antibody, V domains shown)
VH: QVQLVESGGGVVQPGRSLRLSCAASGFTFSRYGMHWVRQAPGKGLEWVALISSGGSNKYYADSVKGRFTISRDNSKNTLYLEMNSLRAEDTAVYYCAKDAIYDYIWGAYRENWFDPWGQGTLVTVSS
VL: DIQMTQSPSSLSASVGDRVTITCRASQSISNYLNWYQQKPGKAPNLLIYAASSLQSGVPSRFSGSGSGTDFTLTISSLQPEDFATYYCQQTSSPPLTFGQGTKVEIK
B16: COVIC-96 (antibody, V domains shown)
VH: QVQLVQSGAEVKKPGSSVKVSCKASGGTFSTSTISWVRQAPGQGLEWMGGIIPLFGSPNYAQKFQGRVTITADESTSTAYMELSSLRFEDTAVYYCARLGQWDLLPRWGQGTLVTVSS
VL: EIVLTQSPGTLSLSPGERATLSCRASQSVSSSYLAWYQQKPGQAPRLLIYGASSRASGTPDRFSGRGSGTDFTLTISRLEPEDFAVYYCQQYGSSYTFGQGTKLEIK
B17: COVIC-185 (antibody, V domains shown)
VH: QVQLVQSGAEVKKPGASVRVSCKASGYTFTGYYMHWVRQAPGQGLEWMGWINPISDGTNYAQKFQGWVTMTRDTSISTVYMELSRLRSDDTAVYYCARGGSRCSGGNCYGWAYDAFDIWGQGTMITVSS
VL: QSALTQPASVSGSPGQSITISCTGTSSDVGGYNFVSWYQQHPGKAPKLMIYDVSKRPSGVSNRFSGSKSGNTASLTISGLQAEDEADCYCSSYTSSSTFVFGTGTKVTVL
B18: COVIC-94 (antibody, V domains shown)
VH: EVQLVESGGGLVQPGGSLRLSCAASGFTFSPSWMGWFRQAPGKEREFVATINEYGGRNYADSVKGRFTISADNSKNTAYLQMNSLKPEDTAVYYCARVDRDFDYWGQGTLVTVSS
B19: COVIC-159 (antibody, V domains shown)
VH: EVQLVESGGGLIQPGGSLRLSCAASGFTVSSNYMNWVRQAPGKGLEWVSVIYSGGSTYYADSVKGRFTISRDNSKNTLFLQMNSLRAEDSAVYYCARDLGPYGVDVWGQGTTVTVSS
VL: DIQLTQSPSFLSASVGDRVTITCWASQGISSYLAWYQQKPGKAPKLLIYAASTLQSGVPSRFSGSGSGTEFTLTISSLQPEDFATYYCQELNSYPLTFGQGTRLEIKR
B20: COVIC-150 (antibody, V domains shown)
VH: B19 VH with F27V, N35S, Y58F, F79Y, S90T, G100S, P101Y, V104M
VL: B19 VL with R61K, E90Q, L96S, T97S, R103K
B21: COVIC-157 (antibody, V domains shown)
VH: B19 VH with F79Y, A87T, S90T, G100V, P101A, V104M
VL: B19 VL with L46V, E90L, Y94N, Q100G, R103K, L104V
B22: COVIC-259 (antibody, V domains shown)
VH: EVQLVESGGGVVQPGRSLRLSCAASGFTFSSYAMHWVRQAPGKGLEWVAVLSYDGSNKYNADSVKGRFTISRDNSKNTLYLQMNSLRVEDTAMYYCARDGVSVTMVRGVIGPLCDYWGQGTLVTVSS
VL: not shown
B23: COVIC-300 (antibody, V domains shown)
VH: EVQLVESGGGLIQPGGSLRLSCAASGFIVSSNYMSWVRQAPGKGLEWVSVIYSGGITYFADSVKGRFTISRDISKNTLYLQMNSLRAEDTAVYYCARDRRLPHYYYGLDVWGQGTTVTVSS
VL: QSVLTQPASVSGSPGQSITISCTGTSSDVGGYNYVSWYQQHPGKAPTLIIYEVTSRPSGVSNRFSGSKSGNTASLTISGLQAEDEADYYCSSYTTSNTLGGVFGTGTKVTVL

Target: SARS-CoV-2 spike RBD (Wuhan-Hu-1) (Severe acute respiratory syndrome …, UniProt P0DTC2)
Assay: SPR

Binder	Kd
B1	0.00664 nM
B2	12.3 nM
B3	0.0861 nM
B4	0.168 nM
B5	0.0696 nM
B6	1.95 nM
B7	1.55 nM
B8	94.2 nM
B9	0.629 nM
B10	0.0568 nM
B11	0.0139 nM
B12	0.0241 nM
B13	2.3 nM
B14	1.85 nM
B15	9 nM
B16	92.2 nM
B17	12.3 nM
B18	5.62 nM
B19	24.9 nM
B20	141 nM
B21	6.65 nM
B22	2.1 nM
B23	1.13 nM
